Experimental findings from patent US20220356229A1 (published 2022) are described below.

Where a chain is given by its changes, count along the chain named.

To fix the notation:
B1: antibody 434 (antibody, V domains shown)
VH: QVQLVQSGAEVKKPGASVQVSCKASGYTFSDYYIFWVRQAPGQGLEWMGCINPKSGGAIYAQRFQGRVTMTRDTSFNTAYMEMNRLGSDDTAVYYCVTRGPPDIAASGFAWHLDVWGQGTTVTVSS
VL: DIVMTQSPLSLPVTPGEPASISCRSSQSLLSSNGYNYLEWYLQKPGQSPQLLMYLGSNRASGVPDRFSGSGSGTDFTLKINRVEAEDVGVYYCMQALQTPLTFGGGTKVEIK
B2: anti-SARS-CoV-2 antibody 409 (antibody, V domains shown)
VH: QVTLRESGPALVKPTQTLTLTCTFSGFSLSTSGMCVSWIRQPPGKALEWLALIDWDDDKYYSTSLKTRLTISKDTSKNQVVLTMTNMDPVDTATYYCARTTYYYVSGRRAEFDPWGQGTLVTVSS
VL: NFMLTQPHSVSESPGKTVTISCTGSSGSIASNYVQWYQQRPGSAPTTVIYEDNQRPSGVPDRFSGSIDSSSNSASLTISGLKTEDEADYYCQSYDSSNQGVFGGGTKLTVL
B3: anti-SARS-CoV-2 antibody 404 (antibody, V domains shown)
VH: QVQLVESGGGVVQPGRSLRLSCAASGFTFSSYGMHWVRQAPGKGLEWVAVIWYDGSNKYYADSVKGRFTISRDNSKNTLYLQMNSLRAEDTAVYYCARLAVDISFDGSDGMDVWGQGTTVTVSS
VL: SYELTQPPSVSVSPGQTARITCSGDALPKKYAYWYQQKSGQAPVLVIYEDSKRPSGIPERFSGSSSGTMATLTISGAQVEDEADYYCYSTDSSGKGVFGTGTKVTVL
B4: anti-SARS-CoV-2 antibody 392 (antibody, V domains shown)
VH: QVQLQESGPGLVKPSGTLSLTCAVSGGSISSSNWWSWVRQPPGKGLEWIGEIYHSGSTNYNPSLKSRVTISVDKSKNQFSLKLSSVTAADTAVYYCARGWRATLYGMDVWGQGTTVTVSS
VL: QSALTQPASVSGSPGQSITISCTGTSSDVGSYNLVSWYQQHPGKAPKLMIYEVSKRPSGVSNRFSGSKSGNTASLTISGLQAEDEADYYCCSYAGSSTWVFGGGTKLTVL
B5: anti-SARS-CoV-2 antibody 405 (antibody, V domains shown)
VH: not shown
VL: B4 VL with A8R, I18V, S31G, L34Y, E52D, S61P, N62D, S97Y, T98N, W99V
B6: anti-SARS-CoV-2 antibody 395 (antibody, V domains shown)
VH: QVQLVQSGSELKKPGASVKLSCQASGYTFSNHAMNWVRQAPGQGLEWMGWINTNTGNPTYAQGFTGRFVFSLDTSVGTAYLHISSLKAEDTAFYYCARASARPGVATNLDFWGQGTLVVVSS
VL: DIQMTQSPSSLSASVGDRVTITCRTSQNIDNYLNWYQQKPGKAPNLLIYAASRLHSGVPSRFSGSGSGTDFTLIISSLQPEDLATYYCQQSYSNPLTFGPGTKVDIR
B7: anti-SARS-CoV-2 antibody 431 (antibody, V domains shown)
VH: QVQLVESGGGVVQPGRSLRLSCAASGFTFSSYAMHWVRQAPGKGLEWLAVISYDGSNKYYADSVKGRFTISRDNSKNTLYLQMNSLRAEDTAVYYCARSFRGGYYYGMDVWGQGTTVTVSS
VL: DIQLTQSPSFLSASVGDRVTITCRASQGISSYLAWYQQKPGKAPKLLIYAASTLQSGVPSRFSGSGSGTEFTLTISSLQPEDFATYYCQQLNSYPLFTFGPGTKVDIK
B8: anti-SARS-CoV-2 antibody 422 (antibody, V domains shown)
VH: QVQLVQSGSELKKPGASVKVSCKASGYTFTSYAMNWVRQAPGQGLEWMGWINTNTGNPTYAQGFTGRFVFSLDTSVSTTYLQISSLKAEDTAVYYCARVIGVVTYYYYGMDVWGQGTTVTVSS
VL: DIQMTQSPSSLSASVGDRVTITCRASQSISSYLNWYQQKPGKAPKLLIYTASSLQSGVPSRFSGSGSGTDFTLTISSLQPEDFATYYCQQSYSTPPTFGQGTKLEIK
B9: anti-SARS-CoV-2 antibody 396 (antibody, V domains shown)
VH: QVQLQQWGAGLLKPSETLSLTCAVYGGSFSGYYWSWIRQPPGKGLEWIGEIIHSGSTNYNPSLKSRVTISVDTSKNQFSLKLSSVTAADTAVYYSARRTGLLWFREGSYYFDYWGQGTLVTVSS
VL: DIQMTQSPSSLSASVGDRVTITCRASQGIRNDLGWYQQKPGKAPKRLIYAASSLQSGVPSRFSGSGSGTEFTLTISSLQPEDFATYYCLQHNSYPLTFGGGTKVEIK
B10: anti-SARS-CoV-2 antibody 407 (antibody, V domains shown)
VH: QVQLVESGGGVVQPGRSLRLSCAASGFTFSSYGMHWVRQAPGKGLEWVAVISYDGSNKYYADSVKGRFTISRDNSKNTLYLQMNSLRAEDTAVYYCAKCGWDYDFWVGQGYGMDVWGQGTTVTVSS
VL: not shown
B11: anti-SARS-CoV-2 antibody 412 (antibody, V domains shown)
VH: QVQLVQSGAEVKKPGASVKVSCKASGYTFTSYGISWVRQAPGQGLEWMGWISAYNGNTNYAQKLQGRVTMTTDTSTSTAYMELRSLRSDDTAVYYCARVTVEAIFGVVILPLKNWFDPWGQGTLVTVSS
VL: QSVLTQPPSVSGAPGQRVTISCTGSSSNIGAGYDVHWYQQLPGTAPKLLIYGNSNRPSGVPDRFSGSKSGTSASLAITGLQAEDEADYYCQSYDSSLTLYVFGTGTKVTVL
B12: anti-SARS-CoV-2 antibody 423 (antibody, V domains shown)
VH: EVQLVESGGGLIQPGGSLRISCAASGFTVRNNHMSWVRQAPGKGLEWVSVFYRGGTTYYADSVKGRFTISRDDSKNTVDLQMNSLRGEDTAVYYCARGLSVAASGYFDCWGQGTLVTVSS
VL: DIQMTQSPSSVSASVGDTVTITCRANQGISSWLAWYQQVPGKAPELLIYATSTLQSGVPSRFSGSGSGTDFTLTISSLQPEDFATYYCQQANSFPFTFGPGTKVDIK
B13: anti-SARS-CoV-2 antibody 421 (antibody, V domains shown)
VH: QVQLVESGGGVVQPGRSLRLSCAASGFTFSTYAMHWVRQAPGKGLEWVAVISYDGSNKYYADSVKGRFTISRDNSKNTLYLQMNSLRAEDTAVYYCARGYGSGSYYPLYLYWGQGTLVTVSS
VL: not shown
B14: anti-SARS-CoV-2 antibody 385 (antibody, V domains shown)
VH: QVQLVESGGGVVQPGRSLRLSCAASGFTFSSYAIHWVRQAPGKGLEWVAVISYDGSNKYYADSVKGRFTISRDNSKNTLYLQMNSLRAEDTAVYYCARPRSGSYWGAFDIWGQGTMVTVSS
VL: QSVLTQPPSVSGAPGQRVTISCTGSSSNIGARYDVHWYQQLPGTAPKLLIYGNSNRPSGVPDRFSGSKSGTSASLAITGLQAEDEADYYCQSYDSSLRGVFGGGTKLTVL
B15: antibody 273 (antibody, V domains shown)
VH: QVQLVQSGAEVKKPGASVKVSCKVSGYTLTELSMHWVRQAPGKGLEWMGGFDPEDGETIYAQKFQGRVTMTEDTSTDTAYMELSSLRSEDTAVYYCATAPGYYDSSAPQPINWFDPWGQGTLVTVSS
VL: B4 VL with W99L
B16: antibody 265 (antibody, V domains shown)
VH: EVQLVQSGAEVKKPGATVKVSCKFSGDTFSHYYIHWVQQAPGKGLEWMGLVDPQDGESEYAQKFQGKVTITADTSIDTSYLEVTSLRFDDTAFYFCATRGMSGAFDRWGQGTLVTVSS
VL: DIVMTQSPDSLAVSLGERATINCKSSQSILSTSNNKNYLAWYQQKPGQPPKLLIYWASTRESGVPDRFSGGGSGTDFTLTISSLQAEDVAVYYCQQYYRTAYTTPIYTFGQGTKLEIK
B17: antibody 266 (antibody, V domains shown)
VH: QVQLVESGGGVVQPGRSLRLSCAASGFNLSNYAMHWVRQPSGKGLEWVSLISYDGSIKYYTDSVKGRFTVSGDNSKNTLFLQMNSLRPDDSALYYCVRGGVSGPNSFDMWGQGTTVTVSS
VL: DVVMTQSPLSLPVTLGQPASISCRSSQSLVYSDGNTYVNWFQQRPGQSPRRLIYQVSIRASGVPDRFSGSGSGTDFALKISRVEAEDVGVYYCMQGTHWPVTFGQGTKVEIK
B18: antibody 264 (antibody, V domains shown)
VH: QVHLVESGGGVVQPGRSLRLSCAASGFTLTSYAMHWVRQAPGKGLEWVALISYDGSVKKYAESVKGRITVSGDNSRNTLHLQINTLRADDTAVYYCVRGGVSGPNSFDLWGQGTMVTVSS
VL: B17 VL with V30E, I58N, A77T, K79Q, V90I
B19: antibody 303 (antibody, V domains shown)
VH: B17 VH with N31S, P40A, T61A, T78M, P88A, S106A, M109I
VL: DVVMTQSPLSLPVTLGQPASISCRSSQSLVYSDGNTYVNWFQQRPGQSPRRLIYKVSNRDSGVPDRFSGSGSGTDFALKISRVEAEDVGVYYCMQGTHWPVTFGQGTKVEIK
B20: antibody 276 (antibody, V domains shown)
VH: QVQLQESGPGLVKPSQTLSLTCTVSGDSISSGGYYWSWIRQHPGKGLEWIGYIYYSGSAYYNPSLKSRVTISLDTSKNQFSLKLSSVTAADTAVYYCARDSVAGFSIFDYWGQGTLVTVSS
VL: SSELTQDPAVSVALGQTVRITCQGDSLRSYYASWYQQKPGQAPVRVIYGKNNRPSGIPDRFSGSSSGNTASLTITGAQAEDEADYYCNSWDSSGNHVVFGGGTKLTVL
B21: antibody 281 (antibody, V domains shown)
VH: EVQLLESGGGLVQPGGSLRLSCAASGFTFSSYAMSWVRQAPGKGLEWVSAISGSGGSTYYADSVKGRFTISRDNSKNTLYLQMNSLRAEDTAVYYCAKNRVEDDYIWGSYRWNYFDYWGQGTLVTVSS
VL: QSALTQPASVSGSPGQSITISCTGTSSDVGSYNLVSWYQQHPGKAPKLMIYEVSKRPSGVSNRFSGSKSGNTASLTISGLQAEDEADYYCCSYAGSSTHVVFGGGTKLTVL
B22: antibody 260 (antibody, V domains shown)
VH: EVQLVESGGGLVQPGRSLRLSCAASGFTFDYYAMHWVRQAPGKGLEWVSGISWNSGTIGYADSVKGRFTISRDNAKNSLYLQMNSLRAEDTALYYCAKDSRPSGRYYYGMDVWGQGTTVTVSS
VL: not shown
B23: antibody 263 (antibody, V domains shown)
VH: EVQLVQSGAEVKKPGATVKISCKVSGYTFTDYYMHWVQQAPGKGLEWMGLVDPEDGETIYAEKFQGRVTITADTSTDTAYMELSSLRSDDTAVYYCTTDLAFTIFGGRRGFDPWGQGTLVTVSS
VL: DIQLTQSPSFLSASVGDRVTITCRASQGISSYLAWYQQKPGKAPKLLIYAASTLQSGVPSRFSGSGSGTEFTLTISSLQPEDFATYYCQQLNSYDFGQGTRLEIK

The first experiment deals with SARS-CoV Spike protein (SARS-CoV, UniProt P59594 14-1190).
As for B1, the “bead binding signal (fold over isotype control)” value came out at 1.36.

A further experiment deals with SARS-CoV Spike protein (full length Spike, coupled to optically encoded beads) (SARS-CoV, UniProt P59594 14-1190).
In the case of B2, the “median fluorescence, fold over isotype” value was found to be 1.03 fold over isotype.
On the same count and under the same terms, with B3 the figure was 1.04 fold over isotype.
For the molecule B4, the “median fluorescence, fold over isotype” value was 1.08 fold over isotype.
On to B5, for which the “median fluorescence, fold over isotype” value was 80.9 fold over isotype.
Turning to B6, the “median fluorescence, fold over isotype” value was 1.16 fold over isotype.
Regarding B7, the “median fluorescence, fold over isotype” value is 49.9 fold over isotype.
Turning to B8, the “median fluorescence, fold over isotype” value was found to be 1.19 fold over isotype.
Take B9: the “median fluorescence, fold over isotype” value amounted to 1.36 fold over isotype.
As for B10, the “median fluorescence, fold over isotype” value came to 1.07 fold over isotype.
Turning to B11, the “median fluorescence, fold over isotype” value is 1.09 fold over isotype.
As for B12, the “median fluorescence, fold over isotype” value was found to be 1.23 fold over isotype.
With B13, the “median fluorescence, fold over isotype” value is 1.19 fold over isotype.
In the case of B14, the “median fluorescence, fold over isotype” value came out at 59.6 fold over isotype.

The target in another experiment is SARS-CoV-2 Spike (S) protein, wild type, full length (SARS-CoV-2, UniProt P0DTC2 14-1208).
With B15, the “bead binding signal (fold over isotype)” value amounted to 924 fold over isotype.
For the molecule B16, the “bead binding signal (fold over isotype)” value was determined as 1280 fold over isotype.
B17: the “bead binding signal (fold over isotype)” value amounted to 473 fold over isotype.
For the molecule B18, the “bead binding signal (fold over isotype)” value worked out at 598 fold over isotype.
The same measure, in the same setting: the figure for B19 is 341 fold over isotype; for B20 it is 748 fold over isotype; for B21 it is 570 fold over isotype.
The same measure, in the same setting: with B22 the figure was 724 fold over isotype; with B23, 722 fold over isotype.
